Measurements: publication PMC11633486, “The Intestinal Transporter SLC30A1 Plays a Critical Role in Regulating Systemic Zinc Homeostasis” (Advanced Science, 2024)

Target: the molecule itself
Assay: cryo-EM structure; purified wild-type SLC30A1 at 5 mg/mL in 25 mM Tris pH 8.0, 150 mM NaCl, 0.002% LMNG, 0.0004% CHS; C2 symmetry imposed; homodimer

B1: full-length human SLC30A1 protein (natural protein, UniProt Q9Y6M5 1-507, looked up)
chain: MGCWGRNRGRLLCMLALTFMFMVLEVVVSRVTSSLAMLSDSFHMLSDVLALVVALVAERFARRTHATQKNTFGWIRAEVMGALVNAIFLTGLCFAILLEAIERFIEPHEMQQPLVVLGVGVAGLLVNVLGLCLFHHHSGFSQDSGHGHSHGGHGHGHGLPKGPRVKSTRPGSSDINVAPGEQGPDQEETNTLVANTSNSNGLKLDPADPENPRSGDTVEVQVNGNLVREPDHMELEEDRAGQLNMRGVFLHVLGDALGSVIVVVNALVFYFSWKGCSEGDFCVNPCFPDPCKAFVEIINSTHASVYEAGPCWVLYLDPTLCVVMVCILLYTTYPLLKESALILLQTVPKQIDIRNLIKELRNVEGVEEVHELHVWQLAGSRIIATAHIKCEDPTSYMEVAKTIKDVFHNHGIHATTIQPEFASVGSKSSVVPCELACRTQCALKQCCGTLPQAPSGKDAEKTPAVSISCLELSNNLEKKPRRTKAENIPAVVIEIKNMPNKQPESSL
notes: SLC30A1 (zinc transporter 1), human, full-length cDNA with codon optimization; Homodimer in the cryo-EM structure; the C291 residues of the two protomers form a disulfide bond; also called WT SLC30A1; wild-type SLC30A1; source: HEK293F, transfected (pEZT vector), purified (Strep-Tactin beads, Superose 6 gel filtration) in LMNG/CHS
stoichiometry N: 2
